Measured values published in the supplement of paper PMC11246515.
± gives the standard deviation of the averaged measurements.

Test: total protein half-life in vivo (active degradation + dilution); higher = more stable protein
[1] = E. coli NCM3722 delta-clpP delta-lon delta-hslV, growth: N-lim chemostat, doubling time 6 h
[2] = E. coli NCM3722 delta-hslV, growth: N-lim chemostat, doubling time 6 h
[3] = E. coli NCM3722 delta-lon, growth: N-lim chemostat, doubling time 6 h
[4] = E. coli NCM3722 delta-smpB, growth: N-lim chemostat, doubling time 6 h
[5] = wild type E. coli NCM3722, growth: C-lim chemostat, doubling time 3 h
[6] = wild type E. coli NCM3722, growth: C-lim chemostat, doubling time 6 h
[7] = wild type E. coli NCM3722, growth: C-lim chemostat, doubling time 12 h
[8] = wild type E. coli NCM3722, growth: N-lim chemostat, doubling time 6 h
[9] = wild type E. coli NCM3722, growth: N-lim chemostat, doubling time 12 h
[10] = wild type E. coli NCM3722, growth: P-lim chemostat, doubling time 6 h
[11] = wild type E. coli NCM3722, growth: P-lim chemostat, doubling time 12 h
[12] = E. coli NCM3722 delta-clpP, growth: N-lim chemostat, doubling time 6 h

Row | Sequence | total protein half-life in vivo [1] [h] | total protein half-life in vivo [2] [h] | total protein half-life in vivo [3] [h] | total protein half-life in vivo [4] [h] | total protein half-life in vivo [5] [h] | total protein half-life in vivo [6] [h] | total protein half-life in vivo [7] [h] | total protein half-life in vivo [8] [h] | total protein half-life in vivo [9] [h] | total protein half-life in vivo [10] [h] | total protein half-life in vivo [11] [h] | total protein half-life in vivo [12] [h]
1 | MNKTITALAIMMASFAANASVLPETPVPFKSGTGAIDNDTVYIGLGSAGTAWYKLDTQAKDKKWTALAAFPGGPRDQATSAFIDGNLYVFGGIGKNSEGLTQVFNDVHKYNPKTNSWVKLMSHAPMGMAGHVTFVHNGKAYVTGGVNQNIFNGYFEDLNEAGKDSTAIDKINAHYFDKKAEDYFFNKFLLSFDPSTQQWSYAGESPWYGTAGAAVVNKGDKTWLINGEAKPGLRTDAVFELDFTGNNLKWNKLAPVSSPDGVAGGFAGISNDSLIFAGGAGFKGSRENYQNGKNYAHEGLKKSYSTDIHLWHNGKWDKSGELSQGRAYGVSLPWNNSLLIIGGETAGGKAVTDSVLITVKDNKVTVQN | 5.85 ± 0.22 | 5.99 ± 0.77 | 6.24 ± 0.61 | 6.27 ± 1.1 | 3.12 ± 0.2 | 6.33 ± 0.044 | 12.6 ± 1.2 | 6.32 ± 0.1 | 11.5 ± 1.4 | 5.97 ± 0.41 | 13.9 ± 1.4 | –
2 | MSEFSQTVPELVAWARKNDFSISLPVDRLSFLLAVATLNGERLDGEMSEGELVDAFRHVSDAFEQTSETIGVRANNAINDMVRQRLLNRFTSEQAEGNAIYRLTPLGIGITDYYIRQREFSTLRLSMQLSIVAGELKRAADAAEEGGDEFHWHRNVYAPLKYSVAEIFDSIDLTQRLMDEQQQQVKDDIAQLLNKDWRAAISSCELLLSETSGTLRELQDTLEAAGDKLQANLLRIQDATMTHDDLHFVDRLVFDLQSKLDRIISWGQQSIDLWIGYDRHVHKFIRTAIDMDKNRVFAQRLRQSVQTYFDEPWALTYANADRLLDMRDEEMALRDEEVTGELPEDLEYEEFNEIREQLAAIIEEQLAVYKTRQVPLDLGLVVREYLSQYPRARHFDVARIVIDQAVRLGVAQADFTGLPAKWQPINDYGAKVQAHVIDKY | 5.86 ± 0.58 | 5.79 ± 0.81 | 5.07 ± 0.54 | 5.246 ± 0.022 | 3.2 ± 0.06 | 5.42 ± 0.67 | 9.64 ± 0.19 | 5.36 ± 0.55 | 7.76 ± 0.8 | 5.7 ± 0.13 | 8.345 ± 0.032 | 6.12 ± 0.39
3 | MSALNKKSFLTYLKEGGIYVVLLVLLAIIIFQDPTFLSLLNLSNILTQSSVRIIIALGVAGLIVTQGTDLSAGRQVGLAAVVAATLLQSMDNANKVFPEMATMPIALVILIVCAIGAVIGLINGLIIAYLNVTPFITTLGTMIIVYGINSLYYDFVGASPISGFDSGFSTFAQGFVALGSFRLSYITFYALIAVAFVWVLWNKTRFGKNIFAIGGNPEAAKVSGVNVGLNLLMIYALSGVFYAFGGMLEAGRIGSATNNLGFMYELDAIAACVVGGVSFSGGVGTVIGVVTGVIIFTVINYGLTYIGVNPYWQYIIKGAIIIFAVALDSLKYARKK | 3.21 | 6.83 ± 0.54 | 6.18 | 6.18 ± 0.67 | 3.05 ± 0.18 | – | 12 ± 0.2 | – | – | 5.49 ± 1.3 | – | 6.19
4 | MMNTEGNNGNKPLGLWNVVSIGIGAMVGAGIFALLGQAALLMEASTWVAFAFGGIVAMFSGYAYARLGASYPSNGGIIDFFRRGLGNGVFSLALSLLYLLTLAVSIAMVARAFGAYAVQFLHEGSQEEHLILLYALGIIAVMTLFNSLSNHAVGRLEVILVGIKMMILLLLIIAGVWSLQPAHISVSAPPSSGAFFSCIGITFLAYAGFGMMANAADKVKDPQVIMPRAFLVAIGVTTLLYISLALVLLSDVSALELEKYADTAVAQAASPLLGHVGYVIVVIGALLATASAINANLFAVFNIMDNMGSERELPKLMNKSLWRQSTWGNIIVVVLIMLMTAALNLGSLASVASATFLICYLAVFVVAIRLRHDIHASLPILIVGTLVMLLVIVGFIYSLWSQGSRALIWIIGSLLLSLIVAMVMKRNKTV | – | – | – | – | – | – | – | – | – | – | – | 6.11
5 | MSLINTKIKPFKNQAFKNGEFIEITEKDTEGRWSVFFFYPADFTFVCPTELGDVADHYEELQKLGVDVYAVSTDTHFTHKAWHSSSETIAKIKYAMIGDPTGALTRNFDNMREDEGLADRATFVVDPQGIIQAIEVTAEGIGRDASDLLRKIKAAQYVASHPGEVCPAKWKEGEATLAPSLDLVGKI [P0AE08] | 2.82 ± 0.23 | 1.91 ± 0.12 | 2.26 ± 0.079 | 2.119 ± 0.01 | 2.89 ± 0.21 | 5.05 ± 0.11 | 7.67 ± 0.6 | 2.03 ± 0.16 | 2.6085 ± 0.0015 | 5.49 ± 0.38 | 9.52 ± 0.29 | 2.22 ± 0.28
6 | MTTQRSPGLFRRLAHGSLVKQILVGLVLGILLAWISKPAAEAVGLLGTLFVGALKAVAPILVLMLVMASIANHQHGQKTNIRPILFLYLLGTFSAALAAVVFSFAFPSTLHLSSSAGDISPPSGIVEVMRGLVMSMVSNPIDALLKGNYIGILVWAIGLGFALRHGNETTKNLVNDMSNAVTFMVKLVIRFAPIGIFGLVSSTLATTGFSTLWGYAQLLVVLVGCMLLVALVVNPLLVWWKIRRNPFPLVLLCLRESGVYAFFTRSSAANIPVNMALCEKLNLDRDTYSVSIPLGATINMAGAAITITVLTLAAVNTLGIPVDLPTALLLSVVASLCACGASGVAGGSLLLIPLACNMFGISNDIAMQVVAVGFIIGVLQDSCETALNSSTDVLFTAAACQAEDDRLANSALRN [P0AGE4] | 5.56 ± 0.69 | 6.04 | 5.28 | 6.21 ± 0.49 | 3.36 | 5.87 ± 0.55 | 12.3 ± 0.23 | 5.94 ± 0.44 | 11.6 | 5.5355 ± 0.00083 | 10.7 ± 0.53 | 5.78
7 | MMLSKKNSETLENFSEKLEVEGRSLWQDARRRFMHNRAAVASLIVLVLIALFVILAPMLSQFAYDDTDWAMMSSAPDMESGHYFGTDSSGRDLLVRVAIGGRISLMVGVAAALVAVVVGTLYGSLSGYLGGKVDSVMMRLLEILNSFPFMFFVILLVTFFGQNILLIFVAIGMVSWLDMARIVRGQTLSLKRKEFIEAAQVGGVSTSGIVIRHIVPNVLGVVVVYASLLVPSMILFESFLSFLGLGTQEPLSSWGALLSDGANSMEVSPWLLLFPAGFLVVTLFCFNFIGDGLRDALDPKDR [P0AFH6] | 5.16 ± 0.26 | – | 4.46 ± 0.22 | 5.01 ± 0.59 | 3.23 ± 0.41 | 5.484 ± 0.036 | 10.8 ± 2.5 | 5.17 ± 0.17 | 8.49 ± 0.1 | 5.37 ± 0.46 | 9.83 ± 1.2 | 5.51 ± 0.1
